The target in the assay is human CD4 antigen (human) (UniProt P01730). Briefly: competition with F1-OKT4A tracer on HPB-ALL cells, flow cytometry.

murine OKT4A (antibody): the Log conc. competitor (pM) at 50% inhibition was found to be 2.4 log pM.

With “chimeric OKT4A (chimeric light chain and chimeric heavy chain) (antibody)”, the Log conc. competitor (pM) at 50% inhibition was 2.9 log pM.
